The target of data set [1] is BPV-1 E1 helicase domain F464A (bovine papillomavirus type 1 (BPV-1)). The experiment in a line: SEC.
The target in data set [2] is BPV-1 E1 helicase domain F464W (bovine papillomavirus type 1 (BPV-1)). The data set can be described thus: SEC.
Data set [3] concerns the target BPV-1 E1 helicase domain H507A (bovine papillomavirus type 1 (BPV-1)). The data set can be described thus: SEC.
Data set [4] has as its target BPV-1 E1 helicase domain K506A (bovine papillomavirus type 1 (BPV-1)). The experiment in a line: SEC.
The target in data set [5] is BPV-1 E1 helicase domain R505E (bovine papillomavirus type 1 (BPV-1)). The data set can be described thus: SEC.
For data set [6], the target named is BPV-1 E1 helicase domain W465F (bovine papillomavirus type 1 (BPV-1)). The data set can be described thus: SEC.
In data set [7] the target is BPV-1 E1 helicase domain, wild type (bovine papillomavirus type 1 (BPV-1)). The experiment in a line: SEC.
In data set [8] the target is E1HD wild-type (Bovine papillomavirus 1 (BPV-1), UniProt P03116 299-605). The experiment in a line: EMSA.

In turn, “BPV-1 E1 helicase domain F464A (domain or fragment)” registered a stoichiometry N in data set [1] of 6. Turning to “BPV-1 E1 helicase domain F464W (domain or fragment)”, the stoichiometry N in data set [2] was 6. For “BPV-1 E1 helicase domain H507A (domain or fragment)”, the stoichiometry N in data set [3] was found to be 6. “BPV-1 E1 helicase domain K506A (domain or fragment)” returned a stoichiometry N in data set [4] of 6. In data set [5], “BPV-1 E1 helicase domain R505E (domain or fragment)” displayed a stoichiometry N of 6. With “BPV-1 E1 helicase domain W465F (domain or fragment)”, in data set [6], the stoichiometry N turned out to be 6. “BPV-1 E1 helicase domain, wild type (domain or fragment)”: in data set [7], the stoichiometry N is 6. Regarding TGCTCTAGAATGCAAACTACTCTGAACGAG (ssDNA) [30mer ssDNA], in data set [8], the binding result is “binds”.

The record behind these values is publication PMC1474052.
